Measurements published in IntAct's records for PubMed 26972053.

B1: Cytosolic arginine sensor for mTORC1 subunit 1 (Homo sapiens), Q8WTX7 (parent)
chain: MELHILEHRVRVLSVARPGLWLYTHPLIKLLFLPRRSRCKFFSLTETPEDYTLMVDEEGFKELPPSEFLQVAEATWLVLNVSSHSGAAVQAAGVTKIARSVIAPLAEHHVSVLMLSTYQTDFILVREQDLSVVIHTLAQEFDIYREVGGEPVPVTRDDSSNGFPRTQHGPSPTVHPIQSPQNRFCVLTLDPETLPAIATTLIDVLFYSHSTPKEAASSSPEPSSITFFAFSLIEGYISIVMDAETQKKFPSDLLLTSSSGELWRMVRIGGQPLGFDECGIVAQIAGPLAAADISAYYISTFNFDHALVPEDGIGSVIEVLQRRQEGLAS
partner: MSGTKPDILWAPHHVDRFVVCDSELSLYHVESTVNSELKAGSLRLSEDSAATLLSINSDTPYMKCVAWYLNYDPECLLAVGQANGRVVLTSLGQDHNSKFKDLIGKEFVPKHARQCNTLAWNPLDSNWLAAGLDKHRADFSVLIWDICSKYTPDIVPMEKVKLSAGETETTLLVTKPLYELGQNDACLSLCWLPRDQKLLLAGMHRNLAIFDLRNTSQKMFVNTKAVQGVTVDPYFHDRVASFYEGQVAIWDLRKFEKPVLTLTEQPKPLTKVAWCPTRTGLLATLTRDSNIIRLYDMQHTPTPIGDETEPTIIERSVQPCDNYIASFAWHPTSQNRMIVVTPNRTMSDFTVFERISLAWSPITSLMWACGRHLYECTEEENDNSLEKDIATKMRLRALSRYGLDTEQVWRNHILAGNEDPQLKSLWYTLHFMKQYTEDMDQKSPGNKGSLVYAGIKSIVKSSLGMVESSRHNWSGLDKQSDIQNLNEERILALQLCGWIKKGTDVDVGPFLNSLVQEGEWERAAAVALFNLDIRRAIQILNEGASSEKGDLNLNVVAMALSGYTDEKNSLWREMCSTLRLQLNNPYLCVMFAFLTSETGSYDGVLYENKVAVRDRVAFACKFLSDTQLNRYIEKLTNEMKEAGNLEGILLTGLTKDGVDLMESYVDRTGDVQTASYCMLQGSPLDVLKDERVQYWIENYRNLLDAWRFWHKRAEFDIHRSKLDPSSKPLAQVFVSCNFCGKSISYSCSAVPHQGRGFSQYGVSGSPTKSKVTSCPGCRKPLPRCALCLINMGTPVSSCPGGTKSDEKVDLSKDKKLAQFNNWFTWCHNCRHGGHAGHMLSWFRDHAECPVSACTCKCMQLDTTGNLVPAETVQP

Variants of: B1
Conditions: with mios_human MIOS

| Variant | effect of a mutation on the interaction |
| --- | --- |
| MELHILEHRVRVLSVARPGLWLYTHPLIKLLFLPRRSRCKFFSLTETPEDYTLMVDEEGFKELPPSEFLQVAEATWLVLNVSSHSGAAVQAAGVTKIARSVIAPLAEHHVSVLMLSTYQTDFILVREQDLSVVIHTLAQEFDIYREVGGEPVPVTRDDSSNGFPRTQHGPSPTVHPIQSPQNRFCVLTLDPETLPAIATTLIDVLFYSHSTPKEAASSSPEPSSITFFAFSLIEGYISIVMDAETQKKFPSDLLLTSSSGELWRMVRIGGQPLGFDECGAVAQIAGPLAAADISAYYISTFNFDHALVPEDGIGSVIEVLQRRQEGLAS [I280A] | disrupting interaction strength |
